Molecular target: T1, human angiotensin-converting enzyme 2 (ACE2) (human, UniProt Q9BYF1 18-740)
T1 construct: also called ACE2 receptor; human angiotensin-converting enzyme 2 on a cell surface
Experiment: protein microarray, ACE2 in solution, Cy3 labeled anti-human IgG detection

T1 sequence (Q9BYF1 18-740 limits assumed): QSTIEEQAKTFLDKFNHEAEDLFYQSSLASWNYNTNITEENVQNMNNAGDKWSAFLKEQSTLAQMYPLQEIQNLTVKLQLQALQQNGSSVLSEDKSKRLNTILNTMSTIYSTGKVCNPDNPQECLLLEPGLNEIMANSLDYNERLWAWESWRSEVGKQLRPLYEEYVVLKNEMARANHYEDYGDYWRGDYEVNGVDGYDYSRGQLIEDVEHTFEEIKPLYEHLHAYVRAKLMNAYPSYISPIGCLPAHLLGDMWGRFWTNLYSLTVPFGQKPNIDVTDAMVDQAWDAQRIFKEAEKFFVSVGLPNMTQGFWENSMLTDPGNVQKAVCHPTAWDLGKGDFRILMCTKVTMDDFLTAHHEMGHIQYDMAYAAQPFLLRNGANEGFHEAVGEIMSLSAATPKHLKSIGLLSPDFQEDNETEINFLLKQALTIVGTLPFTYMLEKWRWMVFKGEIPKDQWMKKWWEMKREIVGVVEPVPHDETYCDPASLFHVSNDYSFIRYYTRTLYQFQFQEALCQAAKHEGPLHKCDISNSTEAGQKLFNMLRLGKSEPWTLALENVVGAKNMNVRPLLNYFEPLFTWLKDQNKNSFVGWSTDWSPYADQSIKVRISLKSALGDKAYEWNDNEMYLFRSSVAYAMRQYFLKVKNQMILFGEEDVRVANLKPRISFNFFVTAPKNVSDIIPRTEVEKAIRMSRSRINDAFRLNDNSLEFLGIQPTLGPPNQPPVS

B1: spike protein (S protein) of MERS-CoV with His-tag (other)
chain: YVDVGPDSVKSACIEVDIQQTFFDKTWPRPIDVSKADGIIYPQGRTYSNITITYQGLFPYQGDHGDMYVYSAGHATGTTPQKLFVANYSQDVKQFANGFVVRIGAAANSTGTVIISPSTSATIRKIYPAFMLGSSVGNFSDGKMGRFFNHTLVLLPDGCGTLLRAFYCILEPRSGNHCPAGNSYTSFATYHTPATDCSDGNYNRNASLNSFKEYFNLRNCTFMYTYNITEDEILEWFGITQTAQGVHLFSSRYVDLYGGNMFQFATLPVYDTIKYYSIIPHSIRSIQSDRKAWAAFYVYKLQPLTFLLDFSVDGYIRRAIDCGFNDLSQLHCSYESFDVESGVYSVSSFEAKPSGSVVEQAEGVECDFSPLLSGTPPQVYNFKRLVFTNCNYNLTKLLSLFSVNDFTCSQISPAAIASNCYSSLILDYFSYPLSMKSDLSVSSAGPISQFNYKQSFSNPTCLILATVPHNLTTITKPLKYSYINKCSRFLSDDRTEVPQLVNANQYSPCVSIVPSTVWEDGDYYRKQLSPLEGGGWLVASGSTVAMTEQLQMGFGITVQYGTDTNSVCPKLEFANDTKIASQLGNCVEYSLYGVSGRGVFQNCTAVGVRQQRFVYDAYQNLVGYYSDDGNYYCLRACVSVPVSVIYDKETKTHATLFGSVACEHISSTMSQYSRSTRSMLKRRDSTYGPLQTPVGCVLGLVNSSLFVEDCKLPLGQSLCALPDTPSTLTPRSVRSVPGEMRLASIAFNHPIQVDQLNSSYFKLSIPTNFSFGVTQEYIQTTIQKVTVDCKQYVCNGFQKCEQLLREYGQFCSKINQALHGANLRQDDSVRNLFASVKSSQSSPIIPGFGGDFNLTLLEPVSISTGSRSARSAIEDLLFDKVTIADPGYMQGYDDCMQQGPASARDLICAQYVAGYKVLPPLMDVNMEAAYTSSLLGSIAGVGWTAGLSSFAAIPFAQSIFYRLNGVGITQQVLSENQKLIANKFNQALGAMQTGFTTTNEAFHKVQDAVNNNAQALSKLASELSNTFGAISASIGDIIQRLDVLEQDAQIDRLINGRLTTLNAFVAQQLVRSESAALSAQLAKDKVNECVKAQSKRSGFCGQGTHIVSFVVNAPNGLYFMHVGYYPSNHIEVVSAYGLCDAANPTNCIAPVNGYFIKTNNTRIVDEWSYTGSSFYAPEPITSLNTKYVAPQVTYQNISTNLPPPLLGNSTGIDFQDELDEFFKNVSTSIPNFGSLTQINTTLLDLTYEMLSLQQVVKALNESYIDLKELGNYTYYNKWPW
  binding result: no binding (tested: 25 ng, 50 ng, 75 ng, 100 ng, and 125 ng)

From US20220170923A1 (NATIONAL CHENG KUNG UNIVERSITY, published 2022)
